# Measurements published in patent US20240076386A1 (Pfizer, published 2024).
# T1: soluble recombinant human E-selectin (R & D Systems, ADP1) (human, UniProt P16581 22-556)
# T1 sequence (looked up): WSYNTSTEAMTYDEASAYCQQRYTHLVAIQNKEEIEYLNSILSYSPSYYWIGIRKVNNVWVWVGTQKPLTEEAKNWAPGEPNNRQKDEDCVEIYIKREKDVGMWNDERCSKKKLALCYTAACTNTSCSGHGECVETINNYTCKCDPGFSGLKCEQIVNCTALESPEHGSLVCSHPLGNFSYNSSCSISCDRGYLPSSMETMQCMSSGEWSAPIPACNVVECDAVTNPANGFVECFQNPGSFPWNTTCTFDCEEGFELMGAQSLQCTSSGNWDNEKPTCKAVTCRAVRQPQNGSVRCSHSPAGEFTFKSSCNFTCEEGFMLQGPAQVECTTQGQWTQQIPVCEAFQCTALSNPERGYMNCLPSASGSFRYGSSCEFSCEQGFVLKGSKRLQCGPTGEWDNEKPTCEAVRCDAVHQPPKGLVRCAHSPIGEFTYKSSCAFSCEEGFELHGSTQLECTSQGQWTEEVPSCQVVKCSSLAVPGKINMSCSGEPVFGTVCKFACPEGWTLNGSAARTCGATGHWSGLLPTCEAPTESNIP
# T2: human E-selectin extracellular domain with 10 His purification tail (human, UniProt P16581 22-556)
# T2 construct: also called soluable human E-selectin extracellular domain; rhE-Selectin
# T2 sequence: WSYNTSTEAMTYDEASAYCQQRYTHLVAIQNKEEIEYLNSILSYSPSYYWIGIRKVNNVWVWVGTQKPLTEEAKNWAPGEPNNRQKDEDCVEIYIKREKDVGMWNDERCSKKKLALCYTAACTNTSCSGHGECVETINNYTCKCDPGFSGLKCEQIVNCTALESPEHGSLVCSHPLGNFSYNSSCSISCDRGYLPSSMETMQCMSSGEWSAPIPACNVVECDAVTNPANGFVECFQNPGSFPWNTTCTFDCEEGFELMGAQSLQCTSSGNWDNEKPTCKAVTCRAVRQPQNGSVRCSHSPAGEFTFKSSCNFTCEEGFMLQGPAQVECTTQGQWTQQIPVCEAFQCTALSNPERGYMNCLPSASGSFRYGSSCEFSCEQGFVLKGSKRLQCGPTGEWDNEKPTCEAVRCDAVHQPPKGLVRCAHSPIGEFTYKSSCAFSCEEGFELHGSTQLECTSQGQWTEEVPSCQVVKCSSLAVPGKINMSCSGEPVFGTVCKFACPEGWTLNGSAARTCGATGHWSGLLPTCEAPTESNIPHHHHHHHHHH
# T3: mouse E-selectin extracellular domain with 10 His purification tail (mouse, UniProt Q00690 22-557)
# T3 construct: also called soluable mouse E-selectin extracellular domain; muE-Selctin
# T3 sequence: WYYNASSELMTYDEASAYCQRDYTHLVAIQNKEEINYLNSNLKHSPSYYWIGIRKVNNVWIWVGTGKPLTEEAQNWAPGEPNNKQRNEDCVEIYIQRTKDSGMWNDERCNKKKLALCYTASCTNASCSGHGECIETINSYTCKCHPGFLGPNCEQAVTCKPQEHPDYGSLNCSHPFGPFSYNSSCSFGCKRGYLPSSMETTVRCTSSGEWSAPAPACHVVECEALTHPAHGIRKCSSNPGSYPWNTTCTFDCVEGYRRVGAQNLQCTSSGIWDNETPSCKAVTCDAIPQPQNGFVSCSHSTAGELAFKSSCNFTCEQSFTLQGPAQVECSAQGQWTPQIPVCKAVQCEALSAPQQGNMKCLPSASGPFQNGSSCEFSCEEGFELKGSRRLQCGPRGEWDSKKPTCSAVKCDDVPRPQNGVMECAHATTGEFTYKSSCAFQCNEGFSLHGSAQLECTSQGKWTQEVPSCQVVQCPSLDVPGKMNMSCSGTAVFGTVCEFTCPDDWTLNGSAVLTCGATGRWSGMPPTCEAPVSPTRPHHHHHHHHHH
# Key:
# [1] = molecular target: T1, soluble recombinant human E-selectin (R …); assay: cell-based or functional assay
# [2] = molecular target: T2, human E-selectin extracellular domain …; assay: AlphaLISA competition vs sialyl Lewis A-PAA-biotin
# Procedure: (§1) The neutralization ability of anti-E-selectin antibodies was measured in an AlphaLISA homogenous competition assay. […] This was incubated at room temperature for 15 minutes, followed by addition of 1.4 μL of human, mouse or cynomolgus monkey E-selectin added to a final concentration of 7 nM. This was again incubated at room temperature for 15 minutes. To this, 1.4 μL AlphaLISA beads was added (Ni-donor/SA-acceptor) for a final assay concentration of 10 μg/mL. This was incubated in the dark at room temperate for at least 10 hours. The plates were then read using the AlphaLISA protocol (Envision).
# [3] = molecular target: T3, mouse E-selectin extracellular domain …; assay: AlphaLISA competition vs sialyl Lewis A-PAA-biotin
# Procedure: as §1
Binder,neutralization of HL-60 cell binding under physiological flow to soluble human E-selectin protein IC50 (nM) [1],EC50 [2],EC50 [3]
"anti-E-selectin antibody 0158 chimera (antibody, human IgG1, kappa, V domains shown, rat VH/VL on effector-null human IgG1 and human kappa) VH: QVQLKESGPGLVQPSETLSLTCTVSGFSISTYNVHWLRQPPGKGLEWMGMMWSGGSPDYNSALKSRLSISRDTSKNQVFLKMNSLQSEDTTTYYCARWGGGFDYWGQGVMVTVSS VL: DIVLTQSPTTLSVTPGETVSLSCRASHSIGTNLHWYQQKTNESPRLLIKFTSQSISGIPSRFSASGSGTDFTLNINNVEFDDVSSYFCQQTQSWPLTFGSGTKLEIKR",17.9 nM,< 0.001 µM,> 0.133 µM
"anti-E-selectin antibody 0180 chimera (antibody, human IgG1, kappa, V domains shown, rat VH/VL on effector-null human IgG1 and human kappa) VH: EVQLQQSGAELGKPGTSVKLSCKVSGYKIRSSYMHWVNQRPGKGLEWIGRIDPANGNTIYGDKFKSKATLTSDTSSNTAYIQLSQLKSDDTAIYFCAIDIGTTFDYWGQGVMVTVSS VL: DIQMTQSPSFLSASVGDRVTINCKASQHINRYLNWYQQKLGEAPKLLIYDANNLQTGIPSRFSGSGSGTDFTLTISSLQPEDVATYFCLQHNSWPNTFGAGTKLELKR",225 nM,< 0.001 µM,> 0.133 µM
"anti-E-selectin antibody 0164 chimera (antibody, human IgG1, kappa, V domains shown, rat VH/VL on effector-null human IgG1 and human kappa) VH: EVQLQQSGAEFGKPGTSVKLSCKVSGYNIRSSYMHWVNQRPGKGLEWIGRIDPANGNTIYAEKFKIKAILTADSSSNTAYMQLSQLKSDDTAIYFCAMDLYSTSEYWGQGVMVTVSS VL: DIQMTQSPSFLSASVGDRVTINCKTSQNINRYLNWYQQKLGEAPKLLIYNANSLQTGIPSRFSASGSGTDFTLTINSLQPEDVATYFCLQDNSWPLTFGSGTKLEIKR",1.7 nM,< 0.001 µM,> 0.133 µM
"anti-E-selectin antibody 0039 chimera (antibody, human IgG1, kappa, V domains shown, rat VH/VL on effector-null human IgG1 and human kappa) VH: QVQLKETGPGLVQPTQTLSITCTVSGFSLTGYYMQWVRQTPGKGLEWMGFIRSSGSTEYNSEFKSRLSISRDTSKNQVFLKMNSLKTEDTGVYYCARCPYKYSSFVYVGVMDAWGQGAPVTVSS VL: EIVMTQSPTSMSTSIGERVTLNCKASQTVGINVDWYQQTPGQPPKLLIYGASNRHTGVPDRFTGSGFGRDFTLTISNVEAEDLAVYCCLQYGSIPHTFGPGTKLELKR",265 nM,< 0.001 µM,> 0.133 µM

# Other lines, results leading:
neutralization of HL-60 cell binding under physiological flow to soluble human E-selectin protein IC50 (nM) [1],EC50 [2],EC50 [3],Binder
21 nM,< 0.001 µM,> 0.133 µM,"anti-E-selectin antibody 0159 chimera (antibody, human IgG1, kappa, V domains shown, rat VH/VL on effector-null human IgG1 and human kappa) VH: EVQLQQSGAELGKPGTSVKLSCKVSGYNIRSTYMHWVSQRPGKGLEWIGRIDPANGNTIYAEKFKRKATLTADTSSNTAYMQLSQLKSDDRAIYFCAMEVRVSFEYWGQGVMVTVSS VL: DIQMTQSPSFLSASVGDRVTINCKASQNINKYLDWYQQKLGEGPKLLIYYTNNLHTGIPSRFSGSGSGTDFTLTISSLQPEDVATYFCLQHDSGYTFGAGTKLELKR"
74.2 nM,< 0.001 µM,> 0.133 µM,"anti-E-selectin antibody 0170 chimera (antibody, human IgG1, kappa, V domains shown, rat VH/VL on effector-null human IgG1 and human kappa) VH: EVQLQQSGAELGKPGTSVKLSCKVSGYSIRSTYMHWVNQRPGKGLEWVGRIDPANGNTIYAERFKNKATLTADTSSNTAYMQLSQLKSDDTAIYFCAVEILGIFDYWGQGVMVTVSS VL: DIQMTQSPSFLSASVGDRVTINCKASQNIDKYLDWYQQKLGEAPKLLMYNTNSLHTGIPSRFSGSGSGTDFTLTISSLQPEDVATYFCLQHNSGYTFGAGTKLELKR"
